Test results taken from the supplement of paper PMC11246515.
± gives the standard deviation of the averaged measurements.

Assay: total protein half-life in vivo (active degradation + dilution); higher = more stable protein
[1] = E. coli NCM3722 delta-clpP delta-lon delta-hslV, growth: N-lim chemostat, doubling time 6 h
[2] = E. coli NCM3722 delta-clpP, growth: N-lim chemostat, doubling time 6 h
[3] = E. coli NCM3722 delta-hslV, growth: N-lim chemostat, doubling time 6 h
[4] = E. coli NCM3722 delta-lon, growth: N-lim chemostat, doubling time 6 h
[5] = E. coli NCM3722 delta-smpB, growth: N-lim chemostat, doubling time 6 h
[6] = wild type E. coli NCM3722, growth: C-lim chemostat, doubling time 3 h
[7] = wild type E. coli NCM3722, growth: C-lim chemostat, doubling time 6 h
[8] = wild type E. coli NCM3722, growth: C-lim chemostat, doubling time 12 h
[9] = wild type E. coli NCM3722, growth: N-lim chemostat, doubling time 6 h
[10] = wild type E. coli NCM3722, growth: N-lim chemostat, doubling time 12 h
[11] = wild type E. coli NCM3722, growth: P-lim chemostat, doubling time 6 h
[12] = wild type E. coli NCM3722, growth: P-lim chemostat, doubling time 12 h

Row | Sequence | total protein half-life in vivo [1] [h] | total protein half-life in vivo [2] [h] | total protein half-life in vivo [3] [h] | total protein half-life in vivo [4] [h] | total protein half-life in vivo [5] [h] | total protein half-life in vivo [6] [h] | total protein half-life in vivo [7] [h] | total protein half-life in vivo [8] [h] | total protein half-life in vivo [9] [h] | total protein half-life in vivo [10] [h] | total protein half-life in vivo [11] [h] | total protein half-life in vivo [12] [h]
1 | MLNQELELSLNMAFARAREHRHEFMTVEHLLLALLSNPSAREALEACSVDLVALRQELEAFIEQTTPVLPASEEERDTQPTLSFQRVLQRAVFHVQSSGRNEVTGANVLVAIFSEQESQAAYLLRKHEVSRLDVVNFISHGTRKDEPTQSSDPGSQPNSEEQAGGEERMENFTTNLNQLARVGGIDPLIGREKELERAIQVLCRRRKNNPLLVGESGVGKTAIAEGLAWRIVQGDVPEVMADCTIYSLDIGSLLAGTKYRGDFEKRFKALLKQLEQDTNSILFIDEIHTIIGAGAASGGQVDAANLIKPLLSSGKIRVIGSTTYQEFSNIFEKDRALARRFQKIDITEPSIEETVQIINGLKPKYEAHHDVRYTAKAVRAAVELAVKYINDRHLPDKAIDVIDEAGARARLMPVSKRKKTVNVADIESVVARIARIPEKSVSQSDRDTLKNLGDRLKMLVFGQDKAIEALTEAIKMARAGLGHEHKPVGSFLFAGPTGVGKTEVTVQLSKALGIELLRFDMSEYMERHTVSRLIGAPPGYVGFDQGGLLTDAVIKHPHAVLLLDEIEKAHPDVFNILLQVMDNGTLTDNNGRKADFRNVVLVMTTNAGVRETERKSIGLIHQDNSTDAMEEIKKIFTPEFRNRLDNIIWFDHLSTDVIHQVVDKFIVELQVQLDQKGVSLEVSQEARNWLAEKGYDRAMGARPMARVIQDNLKKPLANELLFGSLVDGGQVTVALDKEKNELTYGFQSAQKHKAEAAH [P0ABH9] | 6.61 ± 0.43 | 6.29 ± 0.55 | 0.877 ± 0.22 | 0.987 ± 0.069 | 0.823 ± 0.015 | 0.7994 ± 0.0018 | 0.97 ± 0.039 | 1.14 ± 0.28 | 1.03 ± 0.18 | 1.046 ± 0.0038 | 0.795 ± 0.2 | 1.56 ± 0.78
2 | MLNQKIQNPNPDELMIEVDLCYELDPYELKLDEMIEAEPEPEMIEGLPASDALTPADRYLELFEHVQSAKIFPDSKTFPDCAPKMDPLDILIRYRKVRRHRDFDLRKFVENHFWLPEVYSSEYVSDPQNSLKEHIDQLWPVLTREPQDHIPWSSLLALPQSYIVPGGRFSETYYWDSYFTMLGLAESGREDLLKCMADNFAWMIENYGHIPNGNRTYYLSRSQPPVFALMVELFEEDGVRGARRYLDHLKMEYAFWMDGAESLIPNQAYRHVVRMPDGSLLNRYWDDRDTPRDESWLEDVETAKHSGRPPNEVYRDLRAGAASGWDYSSRWLRDTGRLASIRTTQFIPIDLNAFLFKLESAIANISALKGEKETEALFRQKASARRDAVNRYLWDDENGIYRDYDWRREQLALFSAAAIVPLYVGMANHEQADRLANAVRSRLLTPGGILASEYETGEQWDKPNGWAPLQWMAIQGFKMYGDDLLGDEIARSWLKTVNQFYLEQHKLIEKYHIADGVPREGGGGEYPLQDGFGWTNGVVRRLIGLYGEP | 5.33 ± 0.21 | 3.703 ± 0.019 | 2.44 ± 0.17 | 2.97 ± 0.09 | 2.61 ± 0.21 | 1.15 | 2.95 | 3.87 ± 0.14 | 2.47 ± 0.1 | 3.37 ± 0.04 | 2.42 ± 0.43 | 4.75 ± 0.37
3 | MLNQLDNLTERVRGSNKLVDRWLHVRKHLLVAYYNLVGIKPGKESYMRLNEKALDDFCQSLVDYLSAGHFSIYERILHKLEGNGQLARAAKIWPQLEANTQQIMDYYDSSLETAIDHDNYLEFQQVLSDIGEALEARFVLEDKLILLVLDAARVKHPA [P0AFX4] | – | 6.38 | 2.42 ± 0.21 | 2.8 | 2.38 ± 0.34 | – | 3.06 ± 0.11 | 5.14 ± 0.081 | 2.51 ± 0.29 | 3.09 ± 0.19 | 3.51 | 5.62 ± 0.091
4 | MLNSILVILCLIAVSAFFSMSEISLAASRKIKLKLLADEGNINAQRVLNMQENPGMFFTVVQIGLNAVAILGGIVGDAAFSPAFHSLFSRYMSAELSEQLSFILSFSLVTGMFILFADLTPKRIGMIAPEAVALRIINPMRFCLYVCTPLVWFFNGLANIIFRIFKLPMVRKDDITSDDIYAVVEAGALAGVLRKQEHELIENVFELESRTVPSSMTPRENVIWFDLHEDEQSLKNKVAEHPHSKFLVCNEDIDHIIGYVDSKDLLNRVLANQSLALNSGVQIRNTLIVPDTLTLSEALESFKTAGEDFAVIMNEYALVVGIITLNDVMTTLMGDLVGQGLEEQIVARDENSWLIDGGTPIDDVMRVLDIDEFPQSGNYETIGGFMMFMLRKIPKRTDSVKFAGYKFEVVDIDNYRIDQLLVTRIDSKATALSPKLPDAKDKEESVA [P0AE45] | 5.65 ± 0.36 | 6.93 ± 1.4 | 4.5 ± 0.44 | 4.11 ± 0.21 | 4.53 ± 0.24 | 2.97 ± 0.18 | 5.16 ± 0.21 | 8.79 ± 0.3 | 4.33 ± 0.52 | 7.63 ± 0.57 | 5.01 ± 0.053 | 9 ± 0.094
5 | MLPKAARIPHAMTLHGDTRIDNYYWLRDDTRSQPEVLDYLQQENSYGHRVMASQQALQDRILKEIIDRIPQREVSAPYIKNGYRYRHIYEPGCEYAIYQRQSAFSEEWDEWETLLDANKRAAHSEFYSMGGMAITPDNTIMALAEDFLSRRQYGIRFRNLETGNWYPELLDNVEPSFVWANDSWIFYYVRKHPVTLLPYQVWRHAIGTPASQDKLIYEEKDDTYYVSLHKTTSKHYVVIHLASATTSEVRLLDAEMADAEPFVFLPRRKDHEYSLDHYQHRFYLRSNRHGKNFGLYRTRMRDEQQWEELIPPRENIMLEGFTLFTDWLVVEERQRGLTSLRQINRKTREVIGIAFDDPAYVTWIAYNPEPETARLRYGYSSMTTPDTLFELDMDTGERRVLKQTEVPGFYAANYRSEHLWIVARDGVEVPVSLVYHRKHFRKGHNPLLVYGYGSYGASIDADFSFSRLSLLDRGFVYAIVHVRGGGELGQQWYEDGKFLKKKNTFNDYLDACDALLKLGYGSPSLCYAMGGSAGGMLMGVAINQRPELFHGVIAQVPFVDVVTTMLDESIPLTTGEFEEWGNPQDPQYYEYMKSYSPYDNVTAQAYPHLLVTTGLHDSQVQYWEPAKWVAKLRELKTDDHLLLLCTDMDSGHGGKSGRFKSYEGVAMEYAFLVALAQGTLPATPAD | – | 3.82 ± 0.14 | 4.03 ± 0.38 | 4.8 ± 0.56 | 3.5 ± 0.68 | 3.24 ± 0.09 | 5.11 ± 0.12 | 10.8 ± 3.6 | 4.31 ± 0.24 | 8.85 | 5.9 ± 1.3 | 10.3 ± 0.86
6 | MLPSQSPAIFTVSRLNQTVRLLLEHEMGQVWISGEISNFTQPASGHWYFTLKDDTAQVRCAMFRNSNRRVTFRPQHGQQVLVRANITLYEPRGDYQIIVESMQPAGEGLLQQKYEQLKAKLQAEGLFDQQYKKPLPSPAHCVGVITSKTGAALHDILHVLKRRDPSLPVIIYPAAVQGDDAPGQIVRAIELANQRNECDVLIVGRGGGSLEDLWSFNDERVARAIFTSRIPVVSAVGHETDVTIADFVADLRAPTPSAAAEVVSRNQQELLRQVQSTRQRLEMAMDYYLANRTRRFTQIHHRLQQQHPQLRLARQQTMLERLQKRMSFALENQLKRTGQQQQRLTQRLNQQNPQPKIHRAQTRIQQLEYRLAETLRAQLSATRERFGNAVTHLEAVSPLSTLARGYSVTTATDGNVLKKVKQVKAGEMLTTRLEDGWIESEVKNIQPVKKSRKKVH | 6.078 ± 0.013 | 5.772 ± 0.023 | 6.48 ± 0.87 | 5.98 ± 0.4 | 5.71 ± 0.13 | 3.32 ± 0.21 | 6.11 ± 0.37 | 11.39 ± 0.059 | 5.89 ± 0.5 | 12.33 ± 0.035 | 6.05 ± 0.67 | 13.1 ± 2.8
7 | MLRECDYSQALLEQVNQAISDKTPLVIQGSNSKAFLGRPVTGQTLDVRCHRGIVNYDPTELVITARVGTPLVTIEAALESAGQMLPCEPPHYGEEATWGGMVACGLAGPRRPWSGSVRDFVLGTRIITGAGKHLRFGGEVMKNVAGYDLSRLMVGSYGCLGVLTEISMKVLPRPRASLSLRREISLQEAMSEIAEWQLQPLPISGLCYFDNALWIRLEGGEGSVKAARELLGGEEVAGQFWQQLREQQLPFFSLPGTLWRISLPSDAPMMDLPGEQLIDWGGALRWLKSTAEDNQIHRIARNAGGHATRFSAGDGGFAPLSAPLFRYHQQLKQQLDPCGVFNPGRMYAEL | 4.1 ± 1.8 | – | – | – | – | 1.22 ± 0.36 | 2.52 ± 0.13 | 3.59 ± 0.039 | – | – | – | 3.88 ± 1.7
8 | MLRFSANLSMLFGEYDFLARFEKAAQCGFRGVEFMFPYDYDIEELKHVLASNKLEHTLHNLPAGDWAAGERGIACIPGREEEFRDGVAAAIRYARALGNKKINCLVGKTPAGFSSEQIHATLVENLRYAANMLMKEDILLLIEPINHFDIPGFHLTGTRQALKLIDDVGCCNLKIQYDIYHMQRMEGELTNTMTQWADKIGHLQIADNPHRGEPGTGEINYDYLFKVIENSDYNGWVGCEYKPQTTTEAGLRWMDPYR | 4.29 ± 0.63 | 5.97 | – | 4.98 | 3.59 ± 0.17 | – | – | 10.1 | 3.73 | 6.46 | 5.52 | 7.81
9 | MLRHITFTVFITTSMNTLATGMVPETSVLLVDEKRGEASINIKNTDDHPSLLYTTIVDLPESNKSIRLIPTQPVIRVEAGQVQQVRFLLQATVPLQSEELKRVTFEGIPPKDDKSSRVTVSIRQDLPVLIHPASLPEERETWKFLEWRKNGDQIEISNPSNYVVRMTLQFKTLPSGKTGAINKTYFLPHTSTTTALTNATDTKVEFYPASRYGYRGNKYVTDLK | – | – | – | – | – | – | – | – | – | – | 4.81 | –
